Experimental findings from paper PMC6370846 are described below.

In data set [1] the target is α-synuclein monomer (αS-1), C-terminally Cys-tagged, dye-labelled. As to the kind of experiment: dual-color fluorescence cross-correlation spectroscopy (FCCS); self-aggregation: Cy5-labelled and Oregon green 488-labelled copies of the same construct mixed in equal volumes (125 µL each) at 536 µM monomer-equivalent, incubated at 310 K with shaking at 250 rpm for up to 24 h; aliquots diluted in PBS to ~134 pM and measured at 298 K; fractions nrg/nr and nrg/ng fitted to single-exponential growth.

Data set [2] addresses α-synuclein tandem octamer (αS-8), C-terminally Cys-tagged, dye-labelled. As to the kind of experiment: dual-color fluorescence cross-correlation spectroscopy (FCCS); co-aggregation with swapped fluorophores: Cy5-labelled monomer mixed with Oregon green 488-labelled tandem oligomer, equal volumes (125 µL each) at 536 µM monomer-equivalent, 310 K, shaking at 250 rpm, up to 24 h; aliquots diluted in PBS to ~134 pM and measured at 298 K; single-exponential fits.

For data set [3], the target named is α-synuclein tandem tetramer (αS-4), C-terminally Cys-tagged, dye-labelled. The data set is described as above.
Data set [4] deals with α-synuclein tandem dimer (αS-2), C-terminally Cys-tagged, dye-labelled. The description is as above.
The target of data set [5] is α-synuclein tandem octamer (αS-8), C-terminally Cys-tagged, dye-labelled. As to the kind of experiment: dual-color fluorescence cross-correlation spectroscopy (FCCS); co-aggregation: Cy5-labelled tandem oligomer mixed with Oregon green 488-labelled monomer, equal volumes (125 µL each) at 536 µM monomer-equivalent, 310 K, shaking at 250 rpm, up to 24 h; aliquots diluted in PBS to ~134 pM and measured at 298 K; single-exponential fits.

For data set [6], the target named is α-synuclein tandem tetramer (αS-4), C-terminally Cys-tagged, dye-labelled. Described as above.
In data set [7] the target is α-synuclein tandem dimer (αS-2), C-terminally Cys-tagged, dye-labelled. The data set is described as above.
The nature of data set [8]: dual-color fluorescence cross-correlation spectroscopy (FCCS); self-aggregation: Cy5-labelled and Oregon green 488-labelled copies of the same construct mixed in equal volumes (125 µL each) at 536 µM monomer-equivalent, incubated at 310 K with shaking at 250 rpm for up to 24 h; aliquots …. The note with it: other: dual-color fluorescence cross-correlation spectroscopy (FCCS).

Data set [9] deals with α-synuclein tandem octamer (αS-8), C-terminally Cys-tagged, dye-labelled. As to the kind of experiment: dual-color fluorescence cross-correlation spectroscopy (FCCS); self-aggregation: Cy5-labelled and Oregon green 488-labelled copies of the same construct mixed in equal volumes (125 µL each) at 536 µM monomer-equivalent, incubated at 310 K with shaking at 250 rpm for up to 24 h; aliquots diluted in PBS to ~134 pM and measured at 298 K; fractions nrg/nr and nrg/ng fitted to single-exponential growth.

In data set [10] the target is α-synuclein tandem dimer (αS-2), C-terminally Cys-tagged, dye-labelled. Described as above.
In data set [11] the target is α-synuclein tandem tetramer (αS-4), C-terminally Cys-tagged, dye-labelled. The description is as above.

Consider “α-synuclein monomer (αS-1), C-terminally Cys-tagged, dye-labelled (natural protein)”, for which, in data set [1], the k of nrg/ng (rate of exponential growth of aggregation) was 0.035 h⁻¹ and the k of nrg/nr (rate of exponential growth of aggregation) is 0.043 h⁻¹. For the same substance, in [2], the k of nrg/ng (rate of exponential growth of co-aggregation) stood at 0.2 h⁻¹; the k of nrg/nr (rate of exponential growth of co-aggregation) came to 0.05 h⁻¹; the |A| of nrg/ng (extent, percent of Oregon green-labelled αS-8 in dual-color co-aggregates) was determined as 11%; the |A| of nrg/nr (extent, percent of Cy5-labelled αS-1 in dual-color co-aggregates) came out at 4%. Further, in data set [3], the k of nrg/ng (rate of exponential growth of co-aggregation) came out at 0.5 h⁻¹; the k of nrg/nr (rate of exponential growth of co-aggregation) was 2 h⁻¹; the |A| of nrg/ng (extent, percent of Oregon green-labelled αS-4 in dual-color co-aggregates) amounted to 20%; the |A| of nrg/nr (extent, percent of Cy5-labelled αS-1 in dual-color co-aggregates) is 1%. Moreover, in data set [4], the k of nrg/ng (rate of exponential growth of co-aggregation) was found to be 0.2 h⁻¹; the k of nrg/nr (rate of exponential growth of co-aggregation) worked out at 0.2 h⁻¹; the |A| of nrg/ng (extent, percent of Oregon green-labelled αS-2 in dual-color co-aggregates) is 4%; the |A| of nrg/nr (extent, percent of Cy5-labelled αS-1 in dual-color co-aggregates) came to 5%. Further, in data set [5], the k of nrg/ng (rate of exponential growth of co-aggregation) amounted to 0.4 h⁻¹; the k of nrg/nr (rate of exponential growth of co-aggregation) is 0.12 h⁻¹; the |A| of nrg/ng (extent, percent of Oregon green-labelled αS-1 in dual-color co-aggregates) came out at 1%; the |A| of nrg/nr (extent, percent of Cy5-labelled αS-8 in dual-color co-aggregates) was 40%. In data set [6], the k of nrg/ng (rate of exponential growth of co-aggregation) came to 0.8 h⁻¹; the k of nrg/nr (rate of exponential growth of co-aggregation) turned out to be 0.23 h⁻¹; the |A| of nrg/ng (extent, percent of Oregon green-labelled αS-1 in dual-color co-aggregates) was determined as 2%; the |A| of nrg/nr (extent, percent of Cy5-labelled αS-4 in dual-color co-aggregates) worked out at 11%. Also, in data set [7], the k of nrg/ng (rate of exponential growth of co-aggregation) was determined as 0.4 h⁻¹; the k of nrg/nr (rate of exponential growth of co-aggregation) is 0.11 h⁻¹; the |A| of nrg/ng (extent, percent of Oregon green-labelled αS-1 in dual-color co-aggregates) turned out to be 1.7%; the |A| of nrg/nr (extent, percent of Cy5-labelled αS-2 in dual-color co-aggregates) was found to be 4%.
Take “α-synuclein monomer (αS-1), C-terminally Cys-tagged, dye-labelled”: in data set [8], the “percent incorporated into dual-color aggregates after 24 hr” value is “only ~5% of αS-1 and αS-2”; the |A| of nrg/ng (extent, percent of Oregon green-labelled species in dual-color aggregates) came out at 8%; the |A| of nrg/nr (extent, percent of Cy5-labelled species in dual-color aggregates) turned out to be 6%.
For the substance “α-synuclein tandem octamer (αS-8), C-terminally Cys-tagged, dye-labelled”, in data set [9], the k of nrg/ng (rate of exponential growth of aggregation) came out at 0.06 h⁻¹ and the k of nrg/nr (rate of exponential growth of aggregation) came to 0.15 h⁻¹. Moreover, in data set [8], the “percent incorporated into dual-color aggregates after 24 hr” value is recorded as ~35% of Cy5-labelled αS-8; the |A| of nrg/ng (extent, percent of Oregon green-labelled species in dual-color aggregates) came to 26%; the |A| of nrg/nr (extent, percent of Cy5-labelled species in dual-color aggregates) came to 29%.
As for “α-synuclein tandem dimer (αS-2), C-terminally Cys-tagged, dye-labelled”, in data set [10], the k of nrg/ng (rate of exponential growth of aggregation) amounted to 0.2 h⁻¹ and the k of nrg/nr (rate of exponential growth of aggregation) worked out at 0.23 h⁻¹. Moreover, in data set [8], the “percent incorporated into dual-color aggregates after 24 hr” value is “only ~5% of αS-1 and αS-2”; the |A| of nrg/ng (extent, percent of Oregon green-labelled species in dual-color aggregates) was determined as 4%; the |A| of nrg/nr (extent, percent of Cy5-labelled species in dual-color aggregates) came out at 5%.
With “α-synuclein tandem tetramer (αS-4), C-terminally Cys-tagged, dye-labelled”, in data set [11], the k of nrg/ng (rate of exponential growth of aggregation) is 0.18 h⁻¹ and the k of nrg/nr (rate of exponential growth of aggregation) is 0.17 h⁻¹. In [8], the “percent incorporated into dual-color aggregates after 24 hr” value is given as ~15% of Cy5-labelled αS-4; the |A| of nrg/ng (extent, percent of Oregon green-labelled species in dual-color aggregates) stood at 17%; the |A| of nrg/nr (extent, percent of Cy5-labelled species in dual-color aggregates) turned out to be 14%.
